Data: US20080019909A1, “Modulation of Programmed Necrosis” (priority 2003, published 2008)
Positions count from the first letter of the chain named. Names may count otherwise.

Legend:
[1] = system: TNFR-2+ RIP -/- Jurkat cells (R1.1); test: TNF cytotoxic assay (cell loss by PI exclusion on FACS), TNFR-2+ RIP -/- cells; type: cell-based; details: for restoration of response to TNF (TNF killing) by transfected RIP constructs: TNFR-2+ RIP -/- cells reconstituted with RIP mutants, stimulated with TNF
Excerpt: The results are representative of three experiments.

RIP = test: Western blot of RIP protein expression in cells treated with GA; type: cell-based
[2] = system: TNFR-2-expressing wild-type (4E3) Jurkat cells
Protocol: Cells were harvested and analyzed by PI exclusion on FACS 16 hours post-stimulation and cell loss was calculated as described in Example 1 (infra).

FADD -/- I42 cells = test: TNF cytotoxic assay (cell loss by PI exclusion on FACS), FADD -/- I42 cells; type: cell-based; details: FADD -/- cells (I42) transiently transfected; TNF 12 hours; GFP+ cells
Protocol: Cells were stimulated with, TNF or anti-Fas antibody (CH11) for 12 hours and cell loss was analyzed on the GFP+ cells by PI exclusion on FACS.
FIG. 8F is a bar graph depicting the results of experiments in which FADD -/- I42 cells and caspase-8 -/- J3.2 cells (both are TNFR-2+) were stimulated with TNF in the presence or absence of zVAD-fmk for 16 hours.

caspase-8 -/- J3.2 cells = test: TNF cytotoxic assay (cell loss by PI exclusion on FACS), caspase-8 -/- J3.2 cells; details: for TNF-induced programmed necrosis, transfected kinase-inactive constructs: caspase-8 -/- J3.2 cells co-transfected with pEGFP-N1, 10 ng/ml rhTNFα, 16 hours, GFP positive cells

## COC1=C2C[C@@H](C)C[C@H](OC)[C@H](O)[C@@H](C)/C=C(\C)[C@H](OC(N)=O)[C@@H](OC)/C=C\C=C(/C)C(=O)NC(=CC1=O)C2=O [geldanamycin]
[1]; TNFR-2+ RIP -/- cells (R1.1), 10 ng/ml rhTNFα, 16 hours, or 0.5 mM GA
  TNF-induced death (cell loss): no effect
RIP
  reduction in RIP protein level: > 90%
[2]
  cell viability, compound alone: no effect

B1: full-length FADD: full-length FADD transiently transfected into FADD -/- cells (protein, UniProt Q13158 1-208, looked up)
chain: MDPFLVLLHSVSSSLSSSELTELKFLCLGRVGKRKLERVQSGLDLFSMLLEQNDLEPGHTELLRELLASLRRHDLLRRVDDFEAGAAAGAAPGEEDLCAAFNVICDNVGKDWRRLARQLKVSDTKIDSIEDRYPRNLTERVRESLRIWKNTEKENATVAHLVGALRSCQMNLVADLVQEVQQARDLQNRSGAMSPMSWNSDASTSEAS
modifications: full-length
notes: full-length FADD transiently transfected into FADD -/- cells
FADD -/- I42 cells
  TNF-induced programmed necrosis after reconstitution of FADD: suppression

B2: RIPc: C-terminal fragment of RIP (amino acids 325-671) (protein, UniProt Q13546 325-671, looked up, fragment)
chain: CVAVPSSRSNSATEQPGSLHSSQGLGMGPVEESWFAPSLEHPQEENEPSLQSKLQDEANYHLYGSRMDRQTKQQPRQNVAYNREEERRRRVSHDPFAQQRPYENFQNTEGKGTAYSSAASHGNAVHQPSGLTSQPQVLYQNNGLYSSHGFGTRPLDPGTAGPRVWYRPIPSHMPSLHNIPVPETNYLGNTPTMPFSSLPPTDESIKYTIYNSTGIQIGAYNYMEIGGTSSSLLDSTNTNFKEEPAAKYQAIFDNTTSLTDKHLDPIRENLGKHWKNCARKLGFTQSQIDEIDHDYERDGLKEKVYQMLQKWVMREGIKGATVGKLAQALHQCSRIDLLSSLIYVSQN
[1]
  restoration of response to TNF (TNF killing) by transfected RIP constructs: restored

B3: kinase-inactive form of apoptosis signaling kinase ASK1: kinase inactive version of ASK1, expressed from transfected plasmid (protein, UniProt Q99683 1-1374, looked up, variant K709R)
Mitogen-activated protein …: MSTEADEGITFSVPPFAPSGFCTIPEGGICRRGGAAAVGEGEEHQLPPPPPGSFWNVESAAAPGIGCPAATSSSSATRGRGSSVGGGSRRTTVAYVINEASQGQLVVAESEALQSLREACETVGATLETLHFGKLDFGETTVLDRFYNADIAVVEMSDAFRQPSLFYHLGVRESFSMANNIILYCDTNSDSLQSLKEIICQKNTMCTGNYTFVPYMITPHNKVYCCDSSFMKGLTELMQPNFELLLGPICLPLVDRFIQLLKVAQASSSQYFRESILNDIRKARNLYTGKELAAELARIRQRVDNIEVLTADIVINLLLSYRDIQDYDSIVKLVETLEKLPTFDLASHHHVKFHYAFALNRRNLPGDRAKALDIMIPMVQSEGQVASDMYCLVGRIYKDMFLDSNFTDTESRDHGASWFKKAFESEPTLQSGINYAVLLLAAGHQFESSFELRKVGVKLSSLLGKKGNLEKLQSYWEVGFFLGASVLANDHMRVIQASEKLFKLKTPAWYLKSIVETILIYKHFVKLTTEQPVAKQELVDFWMDFLVEATKTDVTVVRFPVLILEPTKIYQPSYLSINNEVEEKTISIWHVLPDDKKGIHEWNFSASSVRGVSISKFEERCCFLYVLHNSDDFQIYFCTELHCKKFFEMVNTITEEKGRSTEEGDCESDLLEYDYEYDENGDRVVLGKGTYGIVYAGRDLSNQVRIAIREIPERDSRYSQPLHEEIALHKHLKHKNIVQYLGSFSENGFIKIFMEQVPGGSLSALLRSKWGPLKDNEQTIGFYTKQILEGLKYLHDNQIVHRDIKGDNVLINTYSGVLKISDFGTSKRLAGINPCTETFTGTLQYMAPEIIDKGPRGYGKAADIWSLGCTIIEMATGKPPFYELGEPQAAMFKVGMFKVHPEIPESMSAEAKAFILKCFEPDPDKRACANDLLVDEFLKVSSKKKKTQPKLSALSAGSNEYLRSISLPVPVLVEDTSSSSEYGSVSPDTELKVDPFSFKTRAKSCGERDVKGIRTLFLGIPDENFEDHSAPPSPEEKDSGFFMLRKDSERRATLHRILTEDQDKIVRNLMESLAQGAEEPKLKWEHITTLIASLREFVRSTDRKIIATTLSKLKLELDFDSHGISQVQVVLFGFQDAVNKVLRNHNIKPHWMFALDSIIRKAVQTAITILVPELRPHFSLASESDTADQEDLDVEDDHEEQPSNQTVRRPQAVIEDAVATSGVSTLSSTVSHDSQSAHRSLNVQLGRMKIETNRLLEELVRKEKELQALLHRAIEEKDQEIKHLKLKSQPIEIPELPVFHLNSSGTNTEDSELTDWLRVNGADEDTISRFLAEDYTLLDVLYYVTRDDLKCLRLRGGMLCTLWKAIIDFRNKQT
caspase-8 -/- J3.2 cells
  TNF-induced programmed necrosis, transfected kinase-inactive constructs: not

B4: p35: known apoptosis inhibitor, transfected plasmid (protein, UniProt P08160 1-299, looked up)
Early 35 kDa protein: MCVIFPVEIDVSQTIIRDCQVDKQTRELVYINKIMNTQLTKPVLMMFNISGPIRSVTRKNNNLRDRIKSKVDEQFDQLERDYSDQMDGFHDSIKYFKDEHYSVSCQNGSVLKSKFAKILKSHDYTDKKSIEAYEKYCLPKLVDERNDYYVAVCVLKPGFENGSNQVLSFEYNPIGNKVIVPFAHEINDTGLYEYDVVAYVDSVQFDGEQFEEFVQSLILPSSFKNSEKVLYYNEASKNKSMIYKALEFTTESSWGKSEKYNWKIFCNGFIYDKKSKVLYVKLHNVTSALNKNVILNTIK
caspase-8 -/- J3.2 cells; caspase 8 -/- J3.2 cells transfected with plasmids, 12 hours stimulation with TNF
  TNF-induced programmed necrosis, transfected apoptosis inhibitors: failed to confer protection

B5: RIPn: N-terminal cleavage product of RIP (amino acids 1-324) (protein, UniProt Q13546 1-324, looked up, fragment)
chain: MQPDMSLNVIKMKSSDFLESAELDSGGFGKVSLCFHRTQGLMIMKTVYKGPNCIEHNEALLEEAKMMNRLRHSRVVKLLGVIIEEGKYSLVMEYMEKGNLMHVLKAEMSTPLSVKGRIILEIIEGMCYLHGKGVIHKDLKPENILVDNDFHIKIADLGLASFKMWSKLNNEEHNELREVDGTAKKNGGTLYYMAPEHLNDVNAKPTEKSDVYSFAVVLWAIFANKEPYENAICEQQLIMCIKSGNRPDVDDITEYCPREIISLMKLCWEANPEARPTFPGIEEKFRPFYLSQLEESVEEDVKSLKKEYSNENAVVKRMQSLQLD
[1]
  restoration of response to TNF (TNF killing) by transfected RIP constructs: failed to restore

B6: kinase-inactive RIP: kinase inactive version of RIP (K45A mutation), expressed from transfected plasmid (protein, UniProt Q13546 1-671, looked up, variant K45A)
Receptor-interacting …: MQPDMSLNVIKMKSSDFLESAELDSGGFGKVSLCFHRTQGLMIMATVYKGPNCIEHNEALLEEAKMMNRLRHSRVVKLLGVIIEEGKYSLVMEYMEKGNLMHVLKAEMSTPLSVKGRIILEIIEGMCYLHGKGVIHKDLKPENILVDNDFHIKIADLGLASFKMWSKLNNEEHNELREVDGTAKKNGGTLYYMAPEHLNDVNAKPTEKSDVYSFAVVLWAIFANKEPYENAICEQQLIMCIKSGNRPDVDDITEYCPREIISLMKLCWEANPEARPTFPGIEEKFRPFYLSQLEESVEEDVKSLKKEYSNENAVVKRMQSLQLDCVAVPSSRSNSATEQPGSLHSSQGLGMGPVEESWFAPSLEHPQEENEPSLQSKLQDEANYHLYGSRMDRQTKQQPRQNVAYNREEERRRRVSHDPFAQQRPYENFQNTEGKGTAYSSAASHGNAVHQPSGLTSQPQVLYQNNGLYSSHGFGTRPLDPGTAGPRVWYRPIPSHMPSLHNIPVPETNYLGNTPTMPFSSLPPTDESIKYTIYNSTGIQIGAYNYMEIGGTSSSLLDSTNTNFKEEPAAKYQAIFDNTTSLTDKHLDPIRENLGKHWKNCARKLGFTQSQIDEIDHDYERDGLKEKVYQMLQKWVMREGIKGATVGKLAQALHQCSRIDLLSSLIYVSQN
[1]
  restoration of response to TNF (TNF killing) by transfected RIP constructs: restored
caspase-8 -/- J3.2 cells
  TNF-induced programmed necrosis, transfected kinase-inactive constructs: strongly suppressed

B7: wild-type RIP: wild-type receptor-interacting protein expressed in RIP -/- cells (protein, UniProt Q13546 1-671, looked up)
Receptor-interacting …: B6 Receptor-interacting … with A45K
[1]
  restoration of response to TNF (TNF killing) by transfected RIP constructs: potently restored

B8: RIP-D324A: non-cleavable mutant of RIP (protein, UniProt Q13546 1-671, looked up, variant D324A)
Receptor-interacting …: B6 Receptor-interacting … with A45K, D324A
[1]
  restoration of response to TNF (TNF killing) by transfected RIP constructs: potently restored
